The numbers were not newly measured in paper PMC3308923, which cites them from elsewhere.

This series deals with HIV-1 capsid CA (Human immunodeficiency virus 1) (UniProt O93182). To be noted: cited from earlier work.
Sequence of HIV-1 capsid CA (Human immunodeficiency virus 1) (O93182 133-363): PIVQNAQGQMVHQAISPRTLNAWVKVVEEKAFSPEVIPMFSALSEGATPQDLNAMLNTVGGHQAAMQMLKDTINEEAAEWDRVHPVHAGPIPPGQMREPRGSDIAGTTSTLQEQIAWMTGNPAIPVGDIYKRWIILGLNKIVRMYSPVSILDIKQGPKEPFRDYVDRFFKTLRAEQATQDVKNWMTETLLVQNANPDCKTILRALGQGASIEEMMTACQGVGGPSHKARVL

On to CAI peptide, for which the Kd (as a rule, the concentration at which binding is half-saturated) is 15 µM.
